Source: patent US20150175711A1 (SINOMAB BIOSCIENCE, published 2015)

Legend:
[1] = molecular target: anti-idiotype mIgG Fab-GPI-DAF fusion protein on transfected SP2/0 cells; experiment: cell-based ELISA, SM03 on transfected SP2/0 GPI clone 3 (surface expression graded +++), anti-human Fc-HRP
[2] = molecular target: anti-idiotype IgD-TM on transfected SP2/0 cells; experiment: cell-based ELISA, SM03 10 ug/ml on transfected SP2/0 Clone BB4 (surface expression graded -), anti-human Fc-HRP
[3] = molecular target: anti-idiotype mIgG Fab-glycophorin A fusion protein on transfected SP2/0 cells; experiment: cell-based ELISA, SM03 on transfected SP2/0 GlycoA clone 15 (surface expression graded +++), anti-human Fc-HRP
[4] = molecular target: anti-idiotype mIgG Fab-glycophorin A fusion protein on transfected SP2/0 cells; experiment: cell-based ELISA, SM03 on transfected SP2/0 GlycoA clone 9 (surface expression graded -), anti-human Fc-HRP
[5] = molecular target: anti-idiotype mIgG Fab-glycophorin A fusion protein on transfected SP2/0 cells; experiment: cell-based ELISA, SM03 on transfected SP2/0 GlycoA clone 8 (surface expression graded -), anti-human Fc-HRP
[6] = molecular target: anti-idiotype IgD-TM on transfected SP2/0 cells; experiment: cell-based ELISA, SM03 10 ug/ml on transfected SP2/0 Clone BB5 (surface expression graded -), anti-human Fc-HRP
[7] = molecular target: anti-idiotype mIgG Fab-GPI-DAF fusion protein on transfected SP2/0 cells; experiment: cell-based ELISA, SM03 on transfected SP2/0 GPI clone 9 (surface expression graded -), anti-human Fc-HRP
[8] = molecular target: anti-idiotype mIgG Fab-GPI-DAF fusion protein on transfected SP2/0 cells; experiment: cell-based ELISA, SM03 on transfected SP2/0 GPI clone 7 (surface expression graded -), anti-human Fc-HRP
[9] = molecular target: anti-idiotype mIgG Fab-GPI-DAF fusion protein on transfected SP2/0 cells; experiment: cell-based ELISA, SM03 on transfected SP2/0 GPI clone 1 (surface expression graded -), anti-human Fc-HRP
[10] = molecular target: anti-idiotype mIgG Fab-GPI-DAF fusion protein on transfected SP2/0 cells; experiment: cell-based ELISA, SM03 on transfected SP2/0 GPI clone 4 (surface expression graded +++), anti-human Fc-HRP
[11] = molecular target: anti-idiotype mIgG Fab-glycophorin A fusion protein on transfected SP2/0 cells; experiment: cell-based ELISA, SM03 on transfected SP2/0 GlycoA clone 14 (surface expression graded -), anti-human Fc-HRP
[12] = molecular target: anti-idiotype IgD-TM on transfected SP2/0 cells; experiment: cell-based ELISA, SM03 10 ug/ml on transfected SP2/0 Clone BF9 (surface expression graded -), anti-human Fc-HRP
[13] = molecular target: anti-idiotype mIgG Fab-glycophorin A fusion protein on transfected SP2/0 cells; experiment: cell-based ELISA, SM03 on transfected SP2/0 GlycoA clone 3 (surface expression graded -), anti-human Fc-HRP
[14] = molecular target: anti-idiotype mIgG Fab-GPI-DAF fusion protein on transfected SP2/0 cells; experiment: cell-based ELISA, SM03 on transfected SP2/0 GPI clone 5 (surface expression graded +), anti-human Fc-HRP
[15] = molecular target: anti-idiotype mIgG Fab-GPI-DAF fusion protein on transfected SP2/0 cells; experiment: cell-based ELISA, SM03 on transfected SP2/0 GPI clone 10 (surface expression graded -), anti-human Fc-HRP
[16] = molecular target: anti-idiotype mIgG Fab-GPI-DAF fusion protein on transfected SP2/0 cells; experiment: cell-based ELISA, SM03 on transfected SP2/0 GPI clone 6 (surface expression graded -), anti-human Fc-HRP
[17] = molecular target: anti-idiotype IgD-TM on transfected SP2/0 cells; experiment: cell-based ELISA, SM03 10 ug/ml on transfected SP2/0 Clone AG5 (surface expression graded +++), anti-human Fc-HRP
[18] = molecular target: anti-idiotype mIgG Fab-glycophorin A fusion protein on transfected SP2/0 cells; experiment: cell-based ELISA, SM03 on transfected SP2/0 GlycoA clone 5 (surface expression graded +++), anti-human Fc-HRP
[19] = molecular target: anti-idiotype IgD-TM on transfected SP2/0 cells; experiment: cell-based ELISA, SM03 10 ug/ml on transfected SP2/0 Clone AF9 (surface expression graded -), anti-human Fc-HRP
[20] = molecular target: anti-idiotype mIgG Fab-glycophorin A fusion protein on transfected SP2/0 cells; experiment: cell-based ELISA, SM03 on transfected SP2/0 GlycoA clone 10 (surface expression graded -), anti-human Fc-HRP
[21] = molecular target: anti-idiotype mIgG Fab-glycophorin A fusion protein on transfected SP2/0 cells; experiment: cell-based ELISA, SM03 on transfected SP2/0 GlycoA clone 1 (surface expression graded -), anti-human Fc-HRP
[22] = molecular target: anti-idiotype IgD-TM on transfected SP2/0 cells; experiment: cell-based ELISA, SM03 10 ug/ml on transfected SP2/0 Clone AB4 (surface expression graded -), anti-human Fc-HRP
[23] = molecular target: anti-idiotype mIgG Fab-GPI-DAF fusion protein on transfected SP2/0 cells; experiment: cell-based ELISA, SM03 on transfected SP2/0 GPI clone 8 (surface expression graded -), anti-human Fc-HRP
BSA = molecular target: T1, BSA (UniProt P02769 25-607); experiment: phage ELISA, 1 ug BSA coated per well, anti-M13-HRP detection
T1 construct: also called control protein (BSA)
Method: Phages that survived panning were rescued. The binding specificities of selected phages were evaluated by Phage-ELISA using the target anti-CD22 antibodies RFB4, SM03, and framework-patched (humanized) SM06 and other control antibodies as antigens. […] After washing five times with borate washing buffer, pH8.0, horse radish peroxidase (HRP)-conjugated anti-M13 mouse antibody (Amersham) at a dilution fold of 3,000 was added.

Sequence of anti-idiotype mIgG Fab-glycophorin A fusion protein on transfected SP2/0 cells (heavy, as listed by the source limits assumed, chain 1 of 2): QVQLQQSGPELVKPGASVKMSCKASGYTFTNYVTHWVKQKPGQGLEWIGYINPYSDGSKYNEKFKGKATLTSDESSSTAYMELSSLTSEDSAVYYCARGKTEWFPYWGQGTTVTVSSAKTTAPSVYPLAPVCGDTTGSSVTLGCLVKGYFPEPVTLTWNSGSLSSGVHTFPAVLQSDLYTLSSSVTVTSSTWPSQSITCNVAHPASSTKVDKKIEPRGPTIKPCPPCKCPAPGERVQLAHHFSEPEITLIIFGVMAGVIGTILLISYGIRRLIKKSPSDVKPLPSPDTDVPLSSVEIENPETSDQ
Sequence of anti-idiotype mIgG Fab-glycophorin A fusion protein on transfected SP2/0 cells (light, as listed by the source limits assumed, chain 2 of 2): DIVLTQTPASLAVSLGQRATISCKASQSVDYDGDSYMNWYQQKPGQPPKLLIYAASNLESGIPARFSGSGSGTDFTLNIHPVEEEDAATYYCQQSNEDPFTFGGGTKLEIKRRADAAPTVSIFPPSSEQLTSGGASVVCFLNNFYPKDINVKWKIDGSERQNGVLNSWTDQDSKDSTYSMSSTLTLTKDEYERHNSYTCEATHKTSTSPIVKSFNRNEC
Sequence of anti-idiotype IgD-TM on transfected SP2/0 cells (heavy, as listed by the source limits assumed, chain 1 of 2): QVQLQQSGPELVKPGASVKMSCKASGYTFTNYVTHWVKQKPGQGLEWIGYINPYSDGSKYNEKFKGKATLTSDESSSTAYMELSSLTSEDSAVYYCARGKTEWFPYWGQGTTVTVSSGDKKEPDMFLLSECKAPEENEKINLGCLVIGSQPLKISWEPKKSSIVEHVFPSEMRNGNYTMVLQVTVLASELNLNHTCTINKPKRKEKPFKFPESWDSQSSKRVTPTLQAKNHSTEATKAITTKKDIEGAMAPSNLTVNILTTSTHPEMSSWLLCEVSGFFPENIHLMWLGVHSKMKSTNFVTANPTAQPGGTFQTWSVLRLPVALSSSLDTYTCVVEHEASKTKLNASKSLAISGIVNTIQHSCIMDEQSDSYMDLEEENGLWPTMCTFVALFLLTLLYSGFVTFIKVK
Sequence of anti-idiotype IgD-TM on transfected SP2/0 cells (light, as listed by the source limits assumed, chain 2 of 2): as the sequence (light, as listed by the source limits assumed, chain 2 of 2) above
Sequence of anti-idiotype mIgG Fab-GPI-DAF fusion protein on transfected SP2/0 cells (heavy, as listed by the source): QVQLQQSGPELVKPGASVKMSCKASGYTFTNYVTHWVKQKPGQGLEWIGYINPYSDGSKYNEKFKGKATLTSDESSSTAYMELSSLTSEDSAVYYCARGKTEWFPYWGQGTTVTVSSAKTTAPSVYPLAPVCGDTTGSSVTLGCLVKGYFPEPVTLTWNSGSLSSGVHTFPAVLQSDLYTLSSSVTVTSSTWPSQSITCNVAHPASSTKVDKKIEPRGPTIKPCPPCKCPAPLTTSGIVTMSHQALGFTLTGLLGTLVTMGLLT
T1 sequence (P02769 25-607 limits assumed): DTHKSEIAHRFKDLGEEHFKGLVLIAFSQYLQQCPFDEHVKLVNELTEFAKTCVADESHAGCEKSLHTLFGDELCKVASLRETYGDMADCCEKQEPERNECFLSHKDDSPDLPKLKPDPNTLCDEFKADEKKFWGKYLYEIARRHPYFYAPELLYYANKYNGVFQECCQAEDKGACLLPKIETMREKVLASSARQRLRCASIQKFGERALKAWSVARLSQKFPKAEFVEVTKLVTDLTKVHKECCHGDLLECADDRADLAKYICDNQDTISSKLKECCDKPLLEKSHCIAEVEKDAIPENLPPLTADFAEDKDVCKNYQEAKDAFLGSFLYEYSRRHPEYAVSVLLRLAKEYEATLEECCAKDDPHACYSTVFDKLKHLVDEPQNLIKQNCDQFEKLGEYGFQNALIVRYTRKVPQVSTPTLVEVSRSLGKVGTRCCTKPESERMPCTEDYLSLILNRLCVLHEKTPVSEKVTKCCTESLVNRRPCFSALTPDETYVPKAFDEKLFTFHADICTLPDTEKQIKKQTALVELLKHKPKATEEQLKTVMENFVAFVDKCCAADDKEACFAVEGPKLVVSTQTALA

Q: What does the source list for SM03 chimeric anti-CD22 antibody?
A: OD450 nm [1]: 3.64 OD450 nm; OD450 nm [2]: 0.501 OD450 nm; OD450 nm [3]: 3.38 OD450 nm; OD450 nm [4]: 0.716 OD450 nm; OD450 nm [5]: 0.284 OD450 nm; OD450 nm [6]: 0.572 OD450 nm; OD450 nm [7]: 0.618 OD450 nm; OD450 nm [8]: 0.7 OD450 nm; OD450 nm [9]: 0.623 OD450 nm; OD450 nm [10]: 3.77 OD450 nm; OD450 nm [11]: 0.437 OD450 nm; OD450 nm [12]: 0.459 OD450 nm; OD450 nm [13]: 0.406 OD450 nm; OD450 nm [14]: 0.977 OD450 nm; OD450 nm [15]: 0.85 OD450 nm; OD450 nm [16]: 0.736 OD450 nm; OD450 nm [17]: 3.08 OD450 nm; OD450 nm [18]: 3.53 OD450 nm; OD450 nm [19]: 0.329 OD450 nm; OD450 nm [20]: 0.498 OD450 nm; OD450 nm [21]: 0.579 OD450 nm; OD450 nm [22]: 0.428 OD450 nm; OD450 nm [23]: 0.618 OD450 nm

B1: scFv Phage #3 (scFv)
scFv: QVQLVQSGPELVKPGASVKMSCKASGYTFTNYVTHWVKQKPGQGLEWIGYINPYSDGSKYNEKFKGKATLTSDESSSTAYMEVSSLTSEDSAVYYCARGKTEWFPYWGQGTPLTVSGGGGSGSGSSGGGGDIVLTQTPASLAVSLGQRATISCKASQSVDYDGDSYMNWYQQKPGQPPKLLIYAASNLESGIPARFSGSGSGTDFTLNIHPVEEEDAATYYCQQSNEDPFTFGGGTKLEI
notes: the phage coat protein fusion is not described; also called scFv isolated from phage #3
Q: Does B1 bind (BSA)?
A: no binding
